Reference: patent US20130149306A1, “Antagonists of Sema3E/PlexinD1 interaction as anti-cancer agents” (NETRIS PHARMA, priority 2010, published 2013)
Read-outs that look alike come from different tables or passages of the source.

Columns and labels:
VEGFR2 = target: T1, VEGFR2 (Homo sapiens, UniProt P35968); assay: Co-precipitation in transfected HEK293T cells; assay type: binding; details: data not shown
T1 construct: expressed in transfected cells; host or cells: HEK293T

4T1 cells [1] = details: for Reduction in the volume of the tumor: 4T1-SD1 vs 4T1-mock
Description: In vivo studies were conducted in 6-8 weeks old BALB/c ByJ female mice (Charles River Laboratories France). 4.5×10^5 4T1-mock or 4T1-SD1 cells were injected into the right posterior flank or into the mammary fad pad of anaesthetized animals. Tumor size was measured externally every two days using a calliper, and the width (A) and length (B) of the developing tumor was converted to volume using the equation V=0.52×A^2×B. Mice were sacrificed 27 days after injection or when the tumor volume was equal to 300 mm^3.
We next evaluated the effect of SD1 on tumor development and metastasic behavior in a syngenic breast cancer model in Balb/c mice, from which 4T1 cells were derived. In a first series of experiments, 4T1-SD1 or 4T1-mock cells were injected either subcutaneously or in their normal anatomical site, the mammary fat pad. The primary tumors formed from the injected cells were collected after 27 days.

MCF-7 cells = assay: Cell death/viability in cultures of MCF-7 cells; assay type: cell-based, human
Description: (§1) Cell death/viability was determined by trypan blue dye exclusion, MTT cell viability assay, calcein assay, and anti-active caspase-3 immunoreactivity. In some experiments, cells were seeded in multiple 24-well plates (5×10^4 cells/well) for 24 h then transfected with different vectors using Lipofectamine Plus (Invitrogen): The different analysis occurred after 48 h (HEK-293T cells) or 72 h (4T1 cells) of serum starvation. In some experiments, cells were cultured in the presence of 10 μM caspase inhibitors: caspase-3 inhibitor II (Z-DEVD-FMK, 264155, VWR), caspase-8 inhibitor II (Z-IETD-FMK, 218759, VWR), and caspase-9 inhibitor II ([…], 218776, VWR).
(§2) For trypan blue exclusion experiments, total cells (adherent and floating) were collected by mechanical detachment and medium collection. Cells were pelleted by slow centrifugation and resuspended in serum-free medium. Trypan blue (0.4%) was added in a ratio of 1:1 to the cell suspension, and the percentage of cell death was measured in a hemacytometer by counting, in a blinded fashion and within a given volume, the number of blue (dead) cells and comparing this number to the total number of cells in this same volume.
(§3) For assessing cell viability using calcein, cells were plated in OptiMEM medium in 96-well black plates (Greiner Bio-one, Courtaboeuf, France). […]

MDA-MB-231 cells = assay: Cell death/viability in cultures of MDA-MB-231 cells; assay type: cell-based, human
Description: as §1, §2, §3

4T1 cells [2] = assay: Cell death/viability in cultures of 4T1 cells; assay type: cell-based, mouse
Description: as §1, §2
For caspase staining, after immunostaining with anti-active caspase-3 antibody, the percentage of labelled cells was estimated by comparing the number of active caspase-3-stained cells with the total number of cells present on a given surface.
For assessing cell viability using calcein, cells were plated in OptiMEM medium in 96-well black plates (Greiner Bio-one, Courtaboeuf, France). After 3-6 days in culture, live cells were stained with 0.5 μg/ml green calcein-acetoxymethyl ester (Molecular Probes, Eugene, Oreg.) for 40 minutes at 37° C., and counted using a flash cytometer (Trophos, Marseille, France).
We next used an in vitro assay to evaluate whether SD1 is directly capable of triggering death of tumor cells. […] Similarly, 4T1-SD1 cells, which proliferate at the same rate as 4T1-mock cells during the first 24-48 h in culture, show increased death 72 h after plating, possibly as a result of SD1 accumulation in the culture medium (FIG. 14). […] Thus, SD1 triggers cancer cell death in a PlexinD1 dependent manner.

Sema3E = target: T2, Sema3E (Mus musculus, UniProt P70275); assay: Co-precipitation in transfected HEK293T cells (His-tagged Sema3E, Nickel resin); assay type: binding; details: myc-tagged SD1, AP-His-tagged Sema3E
T2 construct: expressed in transfected cells; host or cells: HEK293T
T2 sequence (P70275 26-775): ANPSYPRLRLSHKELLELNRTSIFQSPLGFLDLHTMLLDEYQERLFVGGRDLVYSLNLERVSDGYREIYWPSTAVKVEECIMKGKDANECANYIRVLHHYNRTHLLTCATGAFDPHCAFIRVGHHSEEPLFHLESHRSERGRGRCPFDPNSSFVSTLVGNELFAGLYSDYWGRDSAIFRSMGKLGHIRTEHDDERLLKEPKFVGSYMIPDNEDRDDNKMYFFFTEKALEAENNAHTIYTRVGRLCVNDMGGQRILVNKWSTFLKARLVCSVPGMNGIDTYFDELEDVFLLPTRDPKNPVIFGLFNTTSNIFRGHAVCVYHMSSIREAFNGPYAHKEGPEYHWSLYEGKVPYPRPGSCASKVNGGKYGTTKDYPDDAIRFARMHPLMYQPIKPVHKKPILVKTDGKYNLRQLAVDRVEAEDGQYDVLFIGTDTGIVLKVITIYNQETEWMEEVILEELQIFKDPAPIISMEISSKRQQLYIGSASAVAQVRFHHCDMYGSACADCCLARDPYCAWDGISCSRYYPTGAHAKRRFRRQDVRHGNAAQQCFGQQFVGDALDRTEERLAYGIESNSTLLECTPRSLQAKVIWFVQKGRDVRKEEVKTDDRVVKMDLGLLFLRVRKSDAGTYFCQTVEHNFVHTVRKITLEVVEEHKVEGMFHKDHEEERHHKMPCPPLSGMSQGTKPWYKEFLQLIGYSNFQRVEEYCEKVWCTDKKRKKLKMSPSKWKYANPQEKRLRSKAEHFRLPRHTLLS
Description: (A) SD1 is composed of the immunoglobulin (Ig) k-chain secretion signal peptide, followed by the sema domain of mouse PlexinD1 protein (aa 61 to 531) fused in frame with six myc epitope tags (a.a: amino acid). (B) Co-precipitation experiments on HEK 293T cells transfected with the indicated combinations of myc-tagged SD1, Alkaline phosphatase(AP)-Histidine(His)-tagged Sema3E. SD1 can form a complex with Sema3E protein when His-tagged Sema3E is precipitated with a Nickel resin. (C) Displacement curve of Sema3E binding to PlexinD1-expressing HEK 293T cells by increasing concentrations of SD1 (from 1-12 nM). […] (D-G) Quantification of cell death induction by SD1 in cultures of 4T1 (D-E), MDA-MB-231 (F-G) and MCF-7 (F-G) cells measured by trypan blue exclusion (D and F) or by quantification of the percentage of cleaved Caspase-3 positive cells (E and G) in the absence or presence of exogenous Sema3E (100 ng/ml). SD1 is added as conditioned medium from transfected HEK 293T cells at increasing concentration (0 to 20 nM) (D) or fixed concentration (20 nM) (E-G).
HEK293T cells were transfected with AP-Sema3E-his and/or equal amounts of SD1 vectors. […] After incubation with HRP conjugated secondary antibodies, signals were detected with enhanced chemoluminescence system (GE Healthcare, RPN2132). […]

Neuropilin-1 = target: T3, Neuropilin-1 (Homo sapiens, UniProt O14786); assay: Co-precipitation in transfected HEK293T cells; assay type: binding; details: data not shown
T3 construct: expressed in transfected cells; host or cells: HEK293T

PlexinD1 = PlexinD1 (Homo sapiens, UniProt Q9Y4D7); assay: Co-precipitation in transfected HEK293T cells; assay type: binding; details: data not shown
Description: We first set up co-precipitation experiments in transfected HEK293T cells to investigate whether the SD1 interacted with Sema3E ligand. […] Next, we examined the displacement of Sema3E binding to Hek293T cells expressing PlexinD1 by different concentrations of SD1 (from 1-12 nM) present in conditioned medium of HEK293T cells transfected with the SD1 plasmid.

[3] = 15 nM SD1 in conditioned medium, three days

T3 sequence (O14786 22-923, species assumed): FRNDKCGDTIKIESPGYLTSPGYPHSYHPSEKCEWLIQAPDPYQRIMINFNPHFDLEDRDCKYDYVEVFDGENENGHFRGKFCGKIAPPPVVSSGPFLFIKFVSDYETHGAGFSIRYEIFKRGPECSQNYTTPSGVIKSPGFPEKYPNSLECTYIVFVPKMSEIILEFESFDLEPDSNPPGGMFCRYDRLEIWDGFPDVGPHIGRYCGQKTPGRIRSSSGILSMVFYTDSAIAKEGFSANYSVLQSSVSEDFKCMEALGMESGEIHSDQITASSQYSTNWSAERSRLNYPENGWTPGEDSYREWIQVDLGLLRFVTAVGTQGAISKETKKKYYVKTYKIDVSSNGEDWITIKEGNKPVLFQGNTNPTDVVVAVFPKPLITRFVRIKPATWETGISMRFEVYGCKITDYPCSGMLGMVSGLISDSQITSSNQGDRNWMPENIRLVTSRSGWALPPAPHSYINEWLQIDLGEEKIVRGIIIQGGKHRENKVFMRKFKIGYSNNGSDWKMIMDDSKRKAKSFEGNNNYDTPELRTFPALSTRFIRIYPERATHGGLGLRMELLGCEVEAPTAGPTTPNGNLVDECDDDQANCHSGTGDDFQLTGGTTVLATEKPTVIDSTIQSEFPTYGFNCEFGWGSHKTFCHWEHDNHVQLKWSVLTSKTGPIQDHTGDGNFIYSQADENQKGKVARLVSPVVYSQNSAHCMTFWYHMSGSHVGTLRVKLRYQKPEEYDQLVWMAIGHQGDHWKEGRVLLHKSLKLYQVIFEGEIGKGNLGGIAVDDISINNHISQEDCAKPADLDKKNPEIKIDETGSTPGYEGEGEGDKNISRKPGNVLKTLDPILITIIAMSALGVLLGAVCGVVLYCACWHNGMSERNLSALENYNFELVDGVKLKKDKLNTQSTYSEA
T1 sequence (P35968 20-1356, species assumed): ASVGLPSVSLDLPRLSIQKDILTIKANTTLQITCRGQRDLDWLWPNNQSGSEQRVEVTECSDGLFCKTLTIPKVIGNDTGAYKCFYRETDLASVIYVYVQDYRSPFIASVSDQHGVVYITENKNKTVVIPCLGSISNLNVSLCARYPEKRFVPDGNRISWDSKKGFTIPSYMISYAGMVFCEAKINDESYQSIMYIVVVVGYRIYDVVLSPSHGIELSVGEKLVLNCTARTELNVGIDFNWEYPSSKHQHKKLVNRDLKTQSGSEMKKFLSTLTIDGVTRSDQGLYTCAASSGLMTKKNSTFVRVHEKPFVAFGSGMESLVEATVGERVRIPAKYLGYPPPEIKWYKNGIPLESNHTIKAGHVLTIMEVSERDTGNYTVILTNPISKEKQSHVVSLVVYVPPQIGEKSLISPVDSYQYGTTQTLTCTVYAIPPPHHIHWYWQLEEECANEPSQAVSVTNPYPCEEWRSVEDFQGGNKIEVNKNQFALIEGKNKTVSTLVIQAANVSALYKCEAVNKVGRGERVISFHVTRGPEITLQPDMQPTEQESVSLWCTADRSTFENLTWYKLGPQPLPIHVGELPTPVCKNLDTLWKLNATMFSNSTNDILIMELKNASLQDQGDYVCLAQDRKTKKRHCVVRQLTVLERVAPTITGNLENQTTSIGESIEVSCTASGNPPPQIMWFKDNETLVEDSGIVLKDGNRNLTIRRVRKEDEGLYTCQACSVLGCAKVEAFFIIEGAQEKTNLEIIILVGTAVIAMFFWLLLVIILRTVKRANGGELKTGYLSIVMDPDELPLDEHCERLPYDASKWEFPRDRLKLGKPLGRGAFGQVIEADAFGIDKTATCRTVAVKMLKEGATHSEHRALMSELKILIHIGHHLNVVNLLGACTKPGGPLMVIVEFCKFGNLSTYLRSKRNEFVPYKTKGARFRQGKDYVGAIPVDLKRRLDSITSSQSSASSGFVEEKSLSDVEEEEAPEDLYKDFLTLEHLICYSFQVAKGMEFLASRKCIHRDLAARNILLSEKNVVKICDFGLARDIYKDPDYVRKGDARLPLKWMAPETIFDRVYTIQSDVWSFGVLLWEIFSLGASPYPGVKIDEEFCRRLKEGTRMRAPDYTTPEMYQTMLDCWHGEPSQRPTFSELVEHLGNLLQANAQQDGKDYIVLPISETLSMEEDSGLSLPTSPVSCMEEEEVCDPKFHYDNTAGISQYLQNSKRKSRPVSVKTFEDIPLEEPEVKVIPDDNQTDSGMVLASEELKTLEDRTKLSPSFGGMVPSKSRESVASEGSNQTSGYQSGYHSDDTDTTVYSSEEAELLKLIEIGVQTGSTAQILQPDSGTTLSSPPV
PlexinD1, sequence (Q9Y4D7 47-1925, species assumed): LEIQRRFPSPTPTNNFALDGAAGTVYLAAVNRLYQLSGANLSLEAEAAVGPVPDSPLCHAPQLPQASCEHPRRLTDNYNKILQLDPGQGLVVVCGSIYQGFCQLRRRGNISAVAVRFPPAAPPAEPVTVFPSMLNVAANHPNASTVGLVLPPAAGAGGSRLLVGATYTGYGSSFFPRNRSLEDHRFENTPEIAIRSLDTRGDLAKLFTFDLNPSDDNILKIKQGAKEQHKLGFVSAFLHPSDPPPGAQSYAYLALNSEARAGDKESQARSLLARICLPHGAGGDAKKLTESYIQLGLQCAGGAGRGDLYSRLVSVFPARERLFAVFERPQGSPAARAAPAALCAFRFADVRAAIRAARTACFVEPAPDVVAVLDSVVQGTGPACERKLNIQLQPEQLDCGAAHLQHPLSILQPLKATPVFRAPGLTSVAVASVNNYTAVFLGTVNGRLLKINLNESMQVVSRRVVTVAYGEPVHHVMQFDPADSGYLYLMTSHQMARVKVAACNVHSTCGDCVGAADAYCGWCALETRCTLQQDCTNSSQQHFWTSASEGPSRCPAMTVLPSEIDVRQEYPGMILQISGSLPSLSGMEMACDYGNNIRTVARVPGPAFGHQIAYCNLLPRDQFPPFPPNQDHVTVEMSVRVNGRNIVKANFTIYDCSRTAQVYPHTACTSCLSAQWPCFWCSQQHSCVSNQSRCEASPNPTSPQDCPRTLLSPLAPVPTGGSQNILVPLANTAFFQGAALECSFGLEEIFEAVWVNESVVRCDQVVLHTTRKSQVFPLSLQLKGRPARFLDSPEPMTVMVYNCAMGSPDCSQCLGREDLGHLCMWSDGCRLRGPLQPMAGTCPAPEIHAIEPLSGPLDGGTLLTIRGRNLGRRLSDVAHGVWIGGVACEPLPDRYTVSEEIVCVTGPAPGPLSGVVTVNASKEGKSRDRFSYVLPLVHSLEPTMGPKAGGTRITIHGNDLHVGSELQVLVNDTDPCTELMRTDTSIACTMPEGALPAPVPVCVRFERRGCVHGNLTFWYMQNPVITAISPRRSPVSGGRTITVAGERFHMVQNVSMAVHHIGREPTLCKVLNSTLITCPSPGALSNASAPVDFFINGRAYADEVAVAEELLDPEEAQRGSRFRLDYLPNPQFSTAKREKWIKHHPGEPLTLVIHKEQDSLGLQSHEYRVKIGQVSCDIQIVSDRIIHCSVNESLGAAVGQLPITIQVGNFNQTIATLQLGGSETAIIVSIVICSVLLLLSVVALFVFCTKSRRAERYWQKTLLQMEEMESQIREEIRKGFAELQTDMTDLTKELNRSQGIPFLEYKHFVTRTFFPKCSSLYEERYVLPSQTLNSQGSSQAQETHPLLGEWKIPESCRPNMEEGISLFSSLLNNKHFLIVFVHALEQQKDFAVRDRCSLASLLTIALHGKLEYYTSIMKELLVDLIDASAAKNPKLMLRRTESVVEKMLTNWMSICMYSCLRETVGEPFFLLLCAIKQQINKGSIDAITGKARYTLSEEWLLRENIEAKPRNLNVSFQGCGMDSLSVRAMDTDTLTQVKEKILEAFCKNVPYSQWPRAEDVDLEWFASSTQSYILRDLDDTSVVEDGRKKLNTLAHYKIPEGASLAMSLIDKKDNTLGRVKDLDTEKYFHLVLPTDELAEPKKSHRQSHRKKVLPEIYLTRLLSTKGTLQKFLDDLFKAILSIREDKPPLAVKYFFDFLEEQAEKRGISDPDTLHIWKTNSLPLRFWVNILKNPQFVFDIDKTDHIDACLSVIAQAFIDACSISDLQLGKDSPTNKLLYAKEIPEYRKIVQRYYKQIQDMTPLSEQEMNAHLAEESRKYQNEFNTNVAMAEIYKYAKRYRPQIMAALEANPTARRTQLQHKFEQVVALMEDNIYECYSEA

B1: SD1: Ig k-chain secretion signal peptide, sema domain of mouse PlexinD1 protein (aa 61 to 531), fused with six myc epitope tags (protein)
chain: TNNFALDGTAGTVYLAAVNRLYQLSSANLSLEAEATVGPVPDSPLCHAPQLPQASCEHPRRLTDNYNKILQLDPGQGLVVACGSIYQGLCQLRRRGNISALAVSFPPAAPTAEPVTVFPSMLNVAANHPNASTVGLVLPPTSGTGGSRLLVGATYTGFGSAFFPRNRSLEDHRFENTPEIAIRSLDARGDLAKLFTFDLNPSDDNILKIKQGAKEQHKLGFVRAFLHPAVPPHSAQPYAYLALNSEARAGDKDSQARSLLARICLPRGAGGDAKKLTESYIQLGLQCAGGAGRGDLYSRLVSVFPAREQFFAVFERPQGAPGARNAPAALCAFRFDDVQAAIRAARTACFVEPAPDVVAVLDSVVQGTGPACESKRNIQLQPEQLDCGAAHLQHPLTILQPLRASPVFRAPGLTAVAVASANNYTAVFLGTATGRLLKISLNESMQVVSRRVLTVAYGEPVHHVMQFDPMD
modifications: left off: small tags and cut ends
- Direct interaction with VEGFR2 (VEGFR2): did not directly interact
- Time until tumors reached an average volume of 300 mm^3 (4T1 cells [1]; 4T1-SD1, fat pad (4T1-mock: 31±3 dpi)): 50±6 dpi
- Time until tumors reached an average volume of 300 mm^3 (4T1 cells [1]; 4T1-SD1, subcutaneous (4T1-mock: 46±4 dpi)): 60±3 dpi
- Tumor cell proliferation (Ki67 immunostaining) (4T1 cells [1]; 4T1-SD1 vs 4T1-mock tumors): unchanged
- Number of metastatic nodules at the surface of the lungs (4T1 cells [1]; 27 days, subcutaneous and fat pad transplantations, vs control cells): decrease
- SD1-induced death of stromal cells in tumors (4T1 cells [1]; cleaved Caspase-3/-9 immunostaining): not susceptible
- Decreased total tumor weight (4T1 cells [1]; fat pad injections, 27 days): 56%
- Reduction in the volume of the tumor (4T1 cells [1]; mammary fat pad injection, 27 days): 56%
- Reduction in the volume of the tumor (4T1 cells [1]; subcutaneous injection, 27 days): 60%
- Decreased total tumor weight (4T1 cells [1]; subcutaneous injections, 27 days): 60%
- Concentration of blood vessels in primary tumors (PECAM-1) (4T1 cells [1]; subcutaneous, 4T1-SD1 vs control tumors): did not significantly affect
- Increase in tumor cell death (cleaved Caspase-3 or Caspase-9 positive 4T1 cells) in primary tumors (4T1 cells [1]; subcutaneous, 27 days, 4T1-SD1 vs control cells): ~3 fold
- Average number of metastatic nodules per lung (4T1 cells [1]; tumors of similar size (300 mm^3), subcutaneous and fat pad): reduction
- Cell survival, calcein assay (MCF-7 cells; [3]): reduction in cell survival
- Cell death (trypan blue exclusion, cleaved Caspase-3 positive cells) (MCF-7 cells; SD1 conditioned medium 20 nM): induces cell death
- Cell survival, calcein assay (MDA-MB-231 cells; [3]): reduction in cell survival
- Cell death (trypan blue exclusion, cleaved Caspase-3 positive cells) (MDA-MB-231 cells; SD1 conditioned medium 20 nM): induces cell death
- Cell death (trypan blue exclusion, cleaved Caspase-3 positive cells) (4T1 cells [2]; SD1 conditioned medium, 0 to 20 nM or 20 nM): induces cell death
- Viability, calcein assay (4T1 cells [2]; SD1 purified from conditioned medium): decreased viability
- Cell death, trypan blue-exclusion (4T1 cells [2]; recombinant SD1 in conditioned medium): induces cell death
- Interaction with Sema3E ligand (co-precipitation) (Sema3E): physically associated with Sema3E
- Direct interaction with Neuropilin-1 (Neuropilin-1): did not directly interact
- Direct interaction with PlexinD1 (PlexinD1): did not directly interact
